Results reported in US7229788B1, “Protease susceptibility II” (The University of Sydney, priority 1998, dated 2007).
“Also recorded” adds a separate entry of the source.

Legend:
human serum = settings: for effect of protease inhibitor on serum degradation of SHEL (amount of full-length SHEL): SHEL incubated with serum at 37° C., SDS-PAGE, 0.5 mM Pefabloc SC, 5 mM PMSF, 25 mM EDTA, Pefabloc PK, 1 unit Hirudin; for effect of peptide on degradation of SHEL by serum (full-length SHEL, SDS-PAGE, densitometry): molar excess of peptide to SHEL (100:1), preincubated 37° C., SHEL and SHELδ26A
Procedure: Human serum was obtained from fresh intravenous blood, centrifuged at 2000 g to remove red blood cells and then allowed to clot before serum was removed. Aliquots (20 μl) were stored at −20° C. and thawed when needed. 15 μg tropoelastin in 50 mM sodium phosphate buffer, pH 7.8 was incubated with 0.5 μl serum in a 20 μl reaction for between 1 and 18 hr at 37° C. […] All inhibitors were dissolved in water except PMSF which was dissolved in isopropanol. Reactions were analysed by 8% SDS-PAGE. Serum-digested peptides to be used for sequencing were purified by the addition of 1.5 volumes n-propanol, followed by 2.5 volumes n-butanol and stirred overnight. The organic solvents were removed by rotary evaporation and peptides resuspended in 50 mM sodium phosphate buffer, pH 7.8.
Various dilutions of serum from ½– 1/50 in 50 mM sodium phosphate pH7.8 were used and both SHEL and SHELδ26A were used for each experiment.
Experiments were conducted in parallel with S-GAL using identical procedures (see above). Both SHEL and SHELδ26A were used. Each reaction was analysed by 10% SDS-PAGE. Gels were scanned by densitometry and the volume of full-length SHEL calculated as follows. Scanning densitometry of stained gels was performed using the Molecular Dynamics Personal Densitometer. Images were analysed and quantitated using ImageQuant software (Version 3.2, Molecular Dynamics USA).
10 mg/ml SHEL in 50 mM sodium phosphate pH7.8 and 150 mM NaCl was allowed to coacervate at 37° C. until cloudy before adding human plasma kallikrein (6×10^−4U), thrombin (1U), plasmin (1.5×10^−5U), trypsin (2×10^−3U), HLE (1.6×10^−3U) and serum (0.75 μl) for one hour. Control reactions were performed at 16° C. for three hours. Extent of proteolysis was monitored by SDS-PAGE.

human thrombin = target: T1, human thrombin (Homo sapiens, UniProt P00734); experiment: Thrombin digestion of SHEL, SDS-PAGE; type: biochemical; settings: for effect of peptide on degradation of SHEL by thrombin (full-length SHEL, SDS-PAGE, densitometry): molar excess of peptide to SHEL (100:1), SHEL and SHELδ26A
T1 construct: purchased Sigma
Procedure: (§1) A range of enzyme concentrations was originally used to determine the optimal amount for subsequent experiments. Thrombin (0.01–1U), human plasma kallikrein (3×10^−4 to 3×10^−3U), human plasmin (7×10^−5 to 4×10^−7U), bovine trypsin (5×10^−4 to 4×10^−3U), and human leukocyte elastase (1.6×10^−4 to 3.2×10^−3U) were added to 10 μg SHEL or SHELδ26A in 50 mM sodium phosphate buffer pH 7.8 in a total volume of 20 μl. All reactions were performed at 37° C. for one hour. Gelatinase A and B were activated using 0.8 mM APMA at 37° C. for 30 minutes (gelatinase A) or 37° C. for 45 minutes (gelatinase B). Gelatinase A (4×10^−3−4×10^−2) and gelatinase B (2×10^−5−1×10^−4) was added to […] SHEL or SHELd26A in a total volume of […]. Gelatinase B reactions were performed in the presence of 0.75 mM APMA. The degradation profile was analysed by 8, 10 or 12% SDS-PAGE.
(§2) Both SHEL and SHELδ26A were used. Each reaction was analysed by 10% SDS-PAGE.
(§3) Extent of proteolysis was monitored by SDS-PAGE.
Cleavage of GST-SHEL bound to glutathione agarose was performed by washing and resuspending beads in 1× thrombin cleavage buffer (50 mM Tris-HCl pH8.0, 150 mM NaCl, 2.5 mM CaCl2) and adding human thrombin (Sigma) from 0.1 to 1% (w/v) thrombin:fusion protein at 25° C. for one hour (Smith and Johnston 1988). Soluble bacterial lysates used as substrate were incubated similarly with 1× thrombin cleavage buffer, added from a 10× stock. GST (26 kDa) was evident on beads by SDS-PAGE but SHEL could not be identified in the supernatant in numerous experiments. To determine whether thrombin was degrading SHEL, the entire cell lysate was subject to cleavage with increasing concentrations of thrombin. […] GST was clearly present. However, with 0.01U thrombin a band at approximately 64 kDa could be discerned which may represent SHEL although this was not nearly as intense as the GST band.

human plasmin = target: T2, human plasmin (Homo sapiens, UniProt P00747); experiment: Plasmin digestion of SHEL, SDS-PAGE; type: biochemical; settings: molar excess of peptide to SHEL (100:1); SHEL and SHELδ26A
T2 construct: purchased Sigma
T2 sequence (P00747 97-810): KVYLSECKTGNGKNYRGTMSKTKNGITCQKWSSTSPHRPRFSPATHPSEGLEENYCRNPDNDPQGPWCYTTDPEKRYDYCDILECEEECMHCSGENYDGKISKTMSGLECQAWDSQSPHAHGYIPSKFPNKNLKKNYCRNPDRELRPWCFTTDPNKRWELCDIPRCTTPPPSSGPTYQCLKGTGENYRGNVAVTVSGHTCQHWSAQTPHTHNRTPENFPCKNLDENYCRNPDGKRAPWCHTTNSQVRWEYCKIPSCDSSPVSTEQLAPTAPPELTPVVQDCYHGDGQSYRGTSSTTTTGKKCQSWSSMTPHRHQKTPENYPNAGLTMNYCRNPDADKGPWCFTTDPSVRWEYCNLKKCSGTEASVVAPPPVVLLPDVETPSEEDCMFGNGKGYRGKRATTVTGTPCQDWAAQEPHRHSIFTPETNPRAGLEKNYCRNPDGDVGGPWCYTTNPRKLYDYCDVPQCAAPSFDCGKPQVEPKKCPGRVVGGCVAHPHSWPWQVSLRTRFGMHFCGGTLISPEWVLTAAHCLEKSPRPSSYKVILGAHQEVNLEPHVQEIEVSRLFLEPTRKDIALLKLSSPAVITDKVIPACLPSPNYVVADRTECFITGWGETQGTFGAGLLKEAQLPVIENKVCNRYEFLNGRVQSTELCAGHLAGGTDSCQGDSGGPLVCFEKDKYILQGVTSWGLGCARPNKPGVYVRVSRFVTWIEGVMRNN
Procedure: as §1, §2, §3

[1] = target: T3, human leukocyte elastase (HLE) (Homo sapiens, UniProt P08246); experiment: HLE digestion of SHEL, SDS-PAGE; type: biochemical; settings: molar excess of peptide to SHEL (100:1); SHEL and SHELδ26A
T3 construct: purchased Sigma
T3 sequence (P08246 30-267): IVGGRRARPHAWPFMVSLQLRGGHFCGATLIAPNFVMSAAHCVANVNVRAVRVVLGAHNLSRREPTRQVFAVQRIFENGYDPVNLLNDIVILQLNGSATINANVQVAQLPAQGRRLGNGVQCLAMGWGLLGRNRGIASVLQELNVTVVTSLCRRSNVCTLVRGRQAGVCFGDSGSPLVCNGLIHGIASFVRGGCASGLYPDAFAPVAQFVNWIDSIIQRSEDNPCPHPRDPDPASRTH
Procedure: as §1, §2, §3

bovine trypsin = target: T4, bovine trypsin (Bos taurus, UniProt P00760); experiment: Trypsin digestion of SHEL, SDS-PAGE; type: biochemical; settings: molar excess of peptide to SHEL (100:1); SHEL and SHELδ26A
T4 construct: purchased Boehringer-Mannheim
T4 sequence (P00760 24-246): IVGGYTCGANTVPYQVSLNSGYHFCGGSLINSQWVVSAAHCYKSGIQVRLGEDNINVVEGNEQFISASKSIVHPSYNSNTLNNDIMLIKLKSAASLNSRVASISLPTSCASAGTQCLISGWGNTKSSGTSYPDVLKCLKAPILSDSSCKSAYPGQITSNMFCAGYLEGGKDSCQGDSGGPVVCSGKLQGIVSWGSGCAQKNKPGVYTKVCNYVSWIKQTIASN
Procedure: as §1, §2, §3

human plasma kallikrein = target: T5, human plasma kallikrein (Homo sapiens, UniProt P03952); experiment: Kallikrein digestion of SHEL, SDS-PAGE; type: biochemical; settings: molar excess of peptide to SHEL (100:1); SHEL and SHELδ26A
T5 construct: purchased Sigma
T5 sequence (P03952 20-638): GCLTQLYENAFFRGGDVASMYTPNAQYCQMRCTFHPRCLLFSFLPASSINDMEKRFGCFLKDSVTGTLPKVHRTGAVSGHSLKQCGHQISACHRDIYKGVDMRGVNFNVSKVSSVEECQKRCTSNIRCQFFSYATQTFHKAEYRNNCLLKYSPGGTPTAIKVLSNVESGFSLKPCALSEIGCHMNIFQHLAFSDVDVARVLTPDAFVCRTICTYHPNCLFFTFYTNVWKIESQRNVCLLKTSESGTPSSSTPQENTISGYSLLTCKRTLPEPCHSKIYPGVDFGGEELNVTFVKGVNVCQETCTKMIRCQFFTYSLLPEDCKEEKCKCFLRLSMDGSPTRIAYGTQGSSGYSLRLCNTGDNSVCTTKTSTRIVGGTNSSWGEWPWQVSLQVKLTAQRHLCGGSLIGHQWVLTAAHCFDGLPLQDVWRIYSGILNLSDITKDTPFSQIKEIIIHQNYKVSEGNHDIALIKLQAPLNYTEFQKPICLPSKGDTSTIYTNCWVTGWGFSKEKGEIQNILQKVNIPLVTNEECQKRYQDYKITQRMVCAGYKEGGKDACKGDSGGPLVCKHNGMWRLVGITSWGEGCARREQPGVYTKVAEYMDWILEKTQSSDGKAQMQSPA
Procedure: as §1, §2, §3

gelatinase A = gelatinase A (Homo sapiens, UniProt P08253)
Sequence of gelatinase A (P08253 110-660): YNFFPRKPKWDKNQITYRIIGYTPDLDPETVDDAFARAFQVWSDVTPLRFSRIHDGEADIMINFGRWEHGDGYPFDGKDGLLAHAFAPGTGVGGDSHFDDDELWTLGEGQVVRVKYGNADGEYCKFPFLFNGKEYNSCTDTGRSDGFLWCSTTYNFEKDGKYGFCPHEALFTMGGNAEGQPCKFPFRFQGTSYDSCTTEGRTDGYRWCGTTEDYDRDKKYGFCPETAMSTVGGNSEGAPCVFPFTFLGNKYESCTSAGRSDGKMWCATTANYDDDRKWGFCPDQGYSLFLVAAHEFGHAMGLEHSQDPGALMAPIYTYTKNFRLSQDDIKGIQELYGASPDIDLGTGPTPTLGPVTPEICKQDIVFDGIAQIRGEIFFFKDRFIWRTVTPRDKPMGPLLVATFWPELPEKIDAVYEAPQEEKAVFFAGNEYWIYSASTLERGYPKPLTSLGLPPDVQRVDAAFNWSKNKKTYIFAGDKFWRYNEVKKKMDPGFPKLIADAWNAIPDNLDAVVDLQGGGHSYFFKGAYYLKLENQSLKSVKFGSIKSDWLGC

kallikrein = target: T6, kallikrein (Homo sapiens, UniProt P03952); type: biochemical
T6 construct: from tissue; host or cells: human serum
T6 sequence (P03952 20-638): as the sequence (P03952 20-638) above

Compound	effect of protease inhibitor on serum degradation of SHEL (amount of full-length SHEL) (human serum)	effect of peptide on degradation of SHEL by plasmin (full-length SHEL, SDS-PAGE, densitometry) (human plasmin)	effect of peptide on degradation of SHEL by serum (full-length SHEL, SDS-PAGE, densitometry) (human serum)	effect of peptide on degradation of SHEL by HLE (full-length SHEL, SDS-PAGE, densitometry) [1]	effect of peptide on degradation of SHEL by trypsin (full-length SHEL, SDS-PAGE, densitometry) (bovine trypsin)	effect of peptide on degradation of SHEL by thrombin (full-length SHEL, SDS-PAGE, densitometry) (human thrombin)	effect of peptide on degradation of SHEL by kallikrein (full-length SHEL, SDS-PAGE, densitometry) (human plasma kallikrein)	further results
Hirudin [reference compound]	did not appear to significantly inhibit degradation	–	–	–	–	–	–	inhibition of thrombin degradation of SHEL by inhibitor (human thrombin; not shown): degradation was inhibited
N-AAKAQLRAAAGLGA-C (KAQLRAAAGLGAGI; listed as Homo sapiens) [SPS-peptide]	–	more full-length SHEL was evident compared with controls	more full-length SHEL was evident compared with controls	more full-length SHEL using thrombin and HLE but to a lesser extent	more full-length SHEL was evident compared with controls	more full-length SHEL using thrombin and HLE but to a lesser extent	more full-length SHEL was evident compared with controls	–
O=C(O)CN(CCN(CC(=O)O)CC(=O)O)CC(=O)O [EDTA]	appeared to promote digestion	–	–	–	–	–	–	effect on 64 kDa zone in gelatin zymogram digested with serum (gelatinase A): 64 kDa zone was not observed
N-VVGSPSAQDEASPLS-C (listed as Homo sapiens) [S-GAL, reference compound]	–	did not show any significant or consistent inhibition	did not show any significant or consistent inhibition	consistently inhibited; also recorded: significant and reproducible inhibition was seen	did not show any significant or consistent inhibition	some inhibition could be seen	did not show any significant or consistent inhibition	–
O=S(=O)(F)Cc1ccccc1 [PMSF]	protected tropoelastin from cleavage	–	–	–	–	–	–	effect of inhibitor on second cleared zone in SHEL zymogram digested with serum (kallikrein): second cleared zone was not seen
Cl.NCCc1ccc(S(=O)(=O)F)cc1 [Pefabloc SC]	protected tropoelastin from cleavage	–	–	–	–	–	–	–
